Test results: patent US20200317779A1
Positions count from the first letter of the chain named.

B1: C07 (antibody, human IgG1, lambda, L234A L235A, V domains shown)
VH: EVQLVESGGGLVQPGGSLKLSCAASGFTFNTYAMNWVRQASGKGLEWVGRIRSKYNNYATYYADSVKDRFTISRDDSQSTAYLQMNSLKTEDTAVYYCVRHGNFGNSYVSWFAYWGQGTLVTVSS
VL: QAVVTQEPSLTVSPGGTVTLTCRSSTGAVTTSNYANWFQQKPGQAPRGLIGGTNKRAPWTPARFSGSLLGGKAALTLSGAQPEDEAEYYCALWYSNLWVFGGGTKLTVLG
B2: E16 (antibody, human IgG1, lambda, L234A L235A, V domains shown)
VH: B1 VH with G49A, Q78K, S79N
VL: B1 VL with F38V, G71D
B3: H15 (antibody, human IgG1, lambda, L234A L235A, V domains shown)
VH: B1 VH with G49A, A81L
VL: B1 VL with F38V
B4: A03 (antibody, human IgG1, lambda, L234A L235A, V domains shown)
VH: B1 VH with Q78K, S79N
VL: B1 VL with G48T
B5: C16 (antibody, human IgG1, lambda, L234A L235A, V domains shown)
VH: B1 VH
VL: B1 VL with F38V, G71D
B6: B11 (antibody, human IgG1, lambda, L234A L235A, V domains shown)
VH: B1 VH with Q78K, S79N, A81L
VL: B1 VL with F38V, G48T
B7: B13 (antibody, human IgG1, lambda, L234A L235A, V domains shown)
VH: B1 VH with Q78K, S79N, A81L
VL: B1 VL with F38V, G51Y
B8: D15 (antibody, human IgG1, lambda, L234A L235A, V domains shown)
VH: B1 VH with A81L
VL: B1 VL with F38V
B9: A07 (antibody, human IgG1, lambda, L234A L235A, V domains shown)
VH: B1 VH with Q78K, S79N
VL: B1 VL
B10: H16 (antibody, human IgG1, lambda, L234A L235A, V domains shown)
VH: B1 VH with G49A, A81L
VL: B1 VL with F38V, G71D
B11: C15 (antibody, human IgG1, lambda, L234A L235A, V domains shown)
VH: B1 VH
VL: B1 VL with F38V
B12: B10 (antibody, human IgG1, lambda, L234A L235A, V domains shown)
VH: B1 VH with Q78K, S79N, A81L
VL: B1 VL with F38V, G48T, G51Y, G71D
B13: D07 (antibody, human IgG1, lambda, L234A L235A, V domains shown)
VH: B1 VH with A81L
VL: B1 VL
B14: G16 (antibody, human IgG1, lambda, L234A L235A, V domains shown)
VH: B1 VH with G49A
VL: B1 VL with F38V, G71D
B15: C01 (antibody, human IgG1, lambda, L234A L235A, V domains shown)
VH: B1 VH
VL: B1 VL with G48T, G51Y
B16: B12 (antibody, human IgG1, lambda, L234A L235A, V domains shown)
VH: B1 VH with Q78K, S79N, A81L
VL: B1 VL with F38V, G48T, G71D
B17: B14 (antibody, human IgG1, lambda, L234A L235A, V domains shown)
VH: B1 VH with Q78K, S79N, A81L
VL: B1 VL with F38V, G51Y, G71D
B18: E15 (antibody, human IgG1, lambda, L234A L235A, V domains shown)
VH: B1 VH with G49A, Q78K, S79N
VL: B1 VL with F38V
B19: A15 (antibody, human IgG1, lambda, L234A L235A, V domains shown)
VH: B1 VH with Q78K, S79N
VL: B1 VL with F38V
B20: D08 (antibody, human IgG1, lambda, L234A L235A, V domains shown)
VH: B1 VH with A81L
VL: B1 VL with G71D
B21: A08 (antibody, human IgG1, lambda, L234A L235A, V domains shown)
VH: B1 VH with Q78K, S79N
VL: B1 VL with G71D
B22: G15 (antibody, human IgG1, lambda, L234A L235A, V domains shown)
VH: B1 VH with G49A
VL: B1 VL with F38V
B23: F16 (antibody, human IgG1, lambda, L234A L235A, V domains shown)
VH: B1 VH with G49A, Q78K, S79N, A81L
VL: B1 VL with F38V, G71D
B24: C08 (antibody, human IgG1, lambda, L234A L235A, V domains shown)
VH: B1 VH
VL: B1 VL with G71D
B25: D16 (antibody, human IgG1, lambda, L234A L235A, V domains shown)
VH: B1 VH with A81L
VL: B1 VL with F38V, G71D
B26: F15 (antibody, human IgG1, lambda, L234A L235A, V domains shown)
VH: B1 VH with G49A, Q78K, S79N, A81L
VL: B1 VL with F38V
B27: Mouse human chimeric SP34 IgG1 antibody (antibody, V domains shown)
VH: B1 VH with G15K, S41P, G49A, T80I, A81L, S87N, V95M
VL: QAVVTQESALTTSPGETVTLTCRSSTGAVTTSNYANWVQEKPDHLFTGLIGGTNKRAPGVPARFSGSLIGDKAALTITGAQTEDEAIYFCALWYSNLWVFGGGTKLTVLG

target: recombinant cynomolgus monkey CD3ε/δ heterodimer (cynomolgus monkey) (UniProt Q95LI5); experiment: ELISA, coated CD3ε/δ
Sequence (Q95LI5 22-117, stated change not applied, chain 1 of 2): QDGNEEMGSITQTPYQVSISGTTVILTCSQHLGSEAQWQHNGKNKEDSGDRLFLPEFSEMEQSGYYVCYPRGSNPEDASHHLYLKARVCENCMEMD
Sequence (Q95LI8 22-105, stated change not applied, chain 2 of 2, further chain): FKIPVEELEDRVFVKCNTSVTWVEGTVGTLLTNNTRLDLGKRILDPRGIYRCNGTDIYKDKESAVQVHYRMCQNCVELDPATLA

Binder	Absorbance (450 nm)
B1	2.6
B2	2.74
B3	2.84
B4	0.094
B5	2.8
B6	0.107
B7	0.156
B8	3.01
B9	2.55
B10	2.87
B11	2.81
B12	0.076
B13	2.39
B14	2.77
B15	0.075
B16	0.072
B17	0.102
B18	2.7
B19	2.86
B20	2.53
B21	2.34
B22	2.69
B23	2.85
B24	2.18
B25	2.87
B26	2.75

target: recombinant human CD3ε/δ heterodimer (human) (UniProt P07766); experiment: ELISA, coated CD3ε/δ
Sequence (P07766 23-126, stated change not applied, chain 1 of 2): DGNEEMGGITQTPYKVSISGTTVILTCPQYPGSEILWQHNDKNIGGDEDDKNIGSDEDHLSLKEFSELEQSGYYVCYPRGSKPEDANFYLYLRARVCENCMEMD
Sequence (P04234 22-105, stated change not applied, chain 2 of 2, further chain): as the sequence (Q95LI8 22-105, stated change not applied, chain 2 of 2, further chain) above, with V5I, K15N, V20I, T32S, N33D, N34I, A64T, N74S, L83V counted along it

Binder	Absorbance (450 nm)
B1	0.96
B2	2.4
B3	2.44
B4	0.132
B5	2.37
B6	0.132
B7	0.169
B8	2.53
B9	1.31
B10	2.46
B11	2.45
B12	0.098
B13	1.17
B14	2.48
B15	0.131
B16	0.098
B17	0.127
B18	2.41
B19	2.79
B20	0.897
B21	0.875
B22	2.42
B23	2.46
B24	0.446
B25	2.65
B26	2.49

target: recombinant cynomolgus monkey CD3ε/δ heterodimer (cynomolgus monkey) (UniProt Q95LI5); experiment: BLI (Octet), antigen on anti-Penta His sensor, antibody 50 nM

Binder	Kd [nM]	koff [s⁻¹]	kon [M⁻¹ s⁻¹]
B1	27.5	0.00535	194000
B27	0.14	5.3e-05	378000
B2	2.19	0.000482	220000
B3	1.17	0.000269	230000
B5	0.888	0.000341	384000
B8	0.533	0.000233	437000
B9	20.5	0.00315	153000
B10	1.13	0.000206	182000
B11	0.653	0.000343	525000
B13	20	0.00284	143000
B14	1.75	0.00034	195000
B18	1.86	0.00054	290000
B19	0.364	0.000165	453000
B20	21.6	0.00266	123000
B21	21.9	0.00321	147000
B22	1.72	0.000461	269000
B23	1.37	0.000253	185000
B24	35.6	0.00589	166000
B25	0.611	0.000217	356000
B26	1.33	0.000297	224000

target: recombinant human CD3ε/δ heterodimer (human) (UniProt P07766); experiment: as above

Binder	Kd [nM]	koff [s⁻¹]	kon [M⁻¹ s⁻¹]
B1	23	0.00349	152000
B27	0.229	6.01e-05	262000
B2	1.76	0.000284	162000
B3	0.953	0.000189	199000
B5	0.419	0.000112	268000
B8	0.294	9.6e-05	327000
B9	19.5	0.00232	119000
B10	0.881	0.00012	136000
B11	0.43	0.000162	376000
B13	19	0.00214	113000
B14	1.32	0.000201	153000
B18	1.74	0.000392	225000
B19	0.296	9.58e-05	323000
B20	35	0.00287	82000
B21	22.2	0.00226	102000
B22	1.59	0.000332	209000
B23	0.852	0.00012	141000
B24	29.4	0.00317	108000
B25	0.446	0.000107	240000
B26	1.04	0.000206	197000
